Laboratory results from article PMC2701922.

Columns and labels:
purified protein [1] = substrate: NC(=O)c1ccc[n+]([C@@H]2O[C@H](COP(=O)(O)OP(=O)(O)OC[C@H]3O[C@@H](n4cnc5c(N)ncnc54)[C@H](O)[C@@H]3O)[C@@H](O)[C@H]2O)c1; test: purified protein; type: biochemical, Thermotoga maritima; details: 50-1000 μM NAD+, with 6-phosphogluconate, 80°C, varied: cofactor
purified protein [2] = substrate: NC(=O)c1ccc[n+]([C@@H]2O[C@H](COP(=O)(O)OP(=O)(O)OC[C@H]3O[C@@H](n4cnc5c(N)ncnc54)[C@H](OP(=O)(O)O)[C@@H]3O)[C@@H](O)[C@H]2O)c1; test: purified protein; type: biochemical, Thermotoga maritima; details: 2 mM 6-phosphogluconate, 50 mM Hepes pH 7.5, 5 mM Mg2+, 0.5 mM Mn2+, 80°C, varied: cofactor

B1: T. maritima 6PGDH (Thermotoga maritima MSB8) (protein)
chain: MKSHIGLIGLAVMGQNLALNIARKGYKVSVYNRTAQRTEEFVKNRVTNEEIEPHYDIESFVKSLERPRKIILMVKAGKPVDDTISQLLPHLEPGDLIIDGGNSHYMDTERRFKELSEKGILFLGMGVSGGEYGALHGPSLMPGGSREAYNLVEEILLEIAAKTEDGPCCTYVGERSAGHFVKMVHNGIEYAIMQAIAEVYHIMRDVLSLSSEEMSSIFEEWNRGELSSFLVEITYKILRKKDEETGKPMVDVILDKAEQKGTGKWTSQAALDLGIPTPSINLAVVERVISHFKDIRTRLSKLYNKRRSATQGSEEFLRDLRNSLFFAMFMAFSQGMWLIAEASKEFGYGVSLSEVLRIWKGGCIIRAKLIDTLRRYISNENAYLLENEEVMNLLKGKIDSLKNILKASIENEIPVPVLSSSYNYFMSLTEERLPANLIQAQRDFFGAHTFERVDREGVFHINWEEGEIG
notes: full length, expressed in E. coli as CBM-intein-6PGDH fusion, tag removed by intein self-cleavage; 53 kDa
Km (purified protein [1]): 380 µM
Km (purified protein [2]): 10 µM
